Marks after values point to notes of the source that are not given here.
Columns and labels:
[1] = tested on: Patients with Type 2 Diabetes Insufficiently Controlled with Insulin Glargine with or without Metformin; test: Treatment-emergent adverse events, 26-week study; type: in vivo, human; details: in vivo
Excerpt: (§1) FIG. 6—Graphical study design. ^1 Insulin glargine should be injected subcutaneously once daily at dinner or breakfast time (according to patient's/investigators' preference). […] Meal used for insulin glulisine dosing should remain the same throughout the 26-week treatment period. ^4 Injection of insulin glulisine prior to breakfast, lunch and dinner.
(§2) Co-primary endpoints at 26 weeks were (1) non-inferiority (95% CI upper bound <0.4%) in HbA1c reduction with LIXI vs GLU-1 and (2) for LIXI vs GLU-3, either non-inferiority in HbA1c reduction (2a) OR superiority (one-sided α≤0.025) in body weight change (2b). FPG, PPG, IG dose, composite outcomes, AEs, and hypoglycemia were assessed.

[2] = tested on: Patients with Type 2 Diabetes Insufficiently Controlled with Insulin Glargine with or without Metformin; test: HbA1c, randomized open-label active-controlled 3-arm 26-week study (GetGoal-Duo2); type: in vivo, human
Excerpt: as §1, §2

[3] = Baseline (before IMP), mITT population
[4] = Week 26 (LOCF), mITT population

## Insulin Glulisine TID: insulin glulisine three times daily, added to insulin glargine ± metformin (comparator arm)
[1]
  Patients with treatment emergent SAE: Infections and infestations (SOC): 1 (0.3%) n (%)
  Patients with treatment emergent SAE: Injury, poisoning and procedural complications (SOC): 1 (0.3%) n (%)
  Patients with treatment emergent SAE: Invasive ductal breast carcinoma: 1 (0.3%) n (%)
  Patients with treatment emergent SAE: Metabolism and nutrition disorders (SOC): 0 n (%)
  Patients with treatment emergent SAE: Myocardial infarction: 0 n (%)
  Patients with treatment emergent SAE: Myocardial ischaemia: 1 (0.3%) n (%)
  Patients with treatment emergent SAE: Neoplasm malignant: 1 (0.3%) n (%)
  Patients with treatment emergent SAE: Neoplasms benign, malignant and unspecified (incl cysts and polyps) (SOC): 3 (1.0%) n (%)
  Patients with treatment emergent SAE: Nervous system disorders (SOC): 2 (0.7%) n (%)
  Patients with treatment emergent SAE: Neuritis cranial: 0 n (%)
  Patients with treatment emergent SAE: Pancreatic carcinoma metastatic: 0 n (%)
  Patients with treatment emergent SAE: Penile infection: 0 n (%)
  Patients with treatment emergent SAE: Renal and urinary disorders (SOC): 0 n (%)
  Patients with treatment emergent SAE: Renal failure: 0 n (%)
  Patients with treatment emergent SAE: Renal failure acute: 0 n (%)
  Patients with treatment emergent SAE: Septic arthritis staphylococcal: 0 n (%)
  Patients with treatment emergent SAE: Skin and subcutaneous tissue disorders (SOC): 1 (0.3%) n (%)
  Patients with treatment emergent SAE: Skin ulcer haemorrhage: 1 (0.3%) n (%)
  Patients with treatment emergent SAE: Uterine cancer: 0 n (%)
  Patients with treatment emergent SAE: Vascular disorders (SOC): 1 (0.3%) n (%)
  TEAE leading to permanent treatment discontinuation: Abdominal pain: 0 n (%)
  TEAE leading to permanent treatment discontinuation: Any class: 3 (1.0%) n (%)
  TEAE leading to permanent treatment discontinuation: Ascites: 0 n (%)
  TEAE leading to permanent treatment discontinuation: Blood and lymphatic system disorders (SOC): 0 n (%)
  TEAE leading to permanent treatment discontinuation: Blood glucose decreased: 0 n (%)
  TEAE leading to permanent treatment discontinuation: Cardiac disorders (SOC): 1 (0.3%) n (%)
  TEAE leading to permanent treatment discontinuation: Cardiac failure chronic: 1 (0.3%) n (%)
  TEAE leading to permanent treatment discontinuation: Cough: 0 n (%)
  TEAE leading to permanent treatment discontinuation: Decreased appetite: 0 n (%)
  TEAE leading to permanent treatment discontinuation: Dehydration: 0 n (%)
  TEAE leading to permanent treatment discontinuation: Diabetic bullosis: 0 n (%)
  TEAE leading to permanent treatment discontinuation: Diarrhoea: 0 n (%)
  TEAE leading to permanent treatment discontinuation: Dyspepsia: 0 n (%)
  TEAE leading to permanent treatment discontinuation: Epigastric discomfort: 0 n (%)
  TEAE leading to permanent treatment discontinuation: Gastric ulcer haemorrhage: 0 n (%)
  TEAE leading to permanent treatment discontinuation: Gastrointestinal disorders (SOC): 0 n (%)
  TEAE leading to permanent treatment discontinuation: Headache: 0 n (%)
  TEAE leading to permanent treatment discontinuation: Hepatic mass: 0 n (%)
  TEAE leading to permanent treatment discontinuation: Hepatobiliary disorders (SOC): 0 n (%)
  TEAE leading to permanent treatment discontinuation: Hot flush: 0 n (%)
  TEAE leading to permanent treatment discontinuation: Hypoglycaemia: 0 n (%)
  TEAE leading to permanent treatment discontinuation: Immune system disorders (SOC): 1 (0.3%) n (%)
  TEAE leading to permanent treatment discontinuation: Invasive ductal breast carcinoma: 0 n (%)
  TEAE leading to permanent treatment discontinuation: Investigations (SOC): 0 n (%)
  TEAE leading to permanent treatment discontinuation: Lymphadenopathy: 0 n (%)
  TEAE leading to permanent treatment discontinuation: Metabolism and nutrition disorders (SOC): 0 n (%)
  TEAE leading to permanent treatment discontinuation: Metastases to liver: 0 n (%)
  TEAE leading to permanent treatment discontinuation: Metastases to peritoneum: 0 n (%)
  TEAE leading to permanent treatment discontinuation: Nasal congestion: 0 n (%)
  TEAE leading to permanent treatment discontinuation: Nausea: 0 n (%)
  TEAE leading to permanent treatment discontinuation: Neoplasms benign, malignant and unspecified (incl cysts and polyps) (SOC): 0 n (%)
  TEAE leading to permanent treatment discontinuation: Nervous system disorders (SOC): 0 n (%)
  TEAE leading to permanent treatment discontinuation: Pancreatic carcinoma metastatic: 0 n (%)
  TEAE leading to permanent treatment discontinuation: Renal and urinary disorders (SOC): 0 n (%)
  TEAE leading to permanent treatment discontinuation: Renal failure: 0 n (%)
  TEAE leading to permanent treatment discontinuation: Respiratory, thoracic and mediastinal disorders (SOC): 0 n (%)
  TEAE leading to permanent treatment discontinuation: Seasonal allergy: 1 (0.3%) n (%)
  TEAE leading to permanent treatment discontinuation: Skin and subcutaneous tissue disorders (SOC): 1 (0.3%) n (%)
  TEAE leading to permanent treatment discontinuation: Skin ulcer haemorrhage: 1 (0.3%) n (%)
  TEAE leading to permanent treatment discontinuation: Thrombosis: 0 n (%)
  TEAE leading to permanent treatment discontinuation: Tremor: 0 n (%)
  TEAE leading to permanent treatment discontinuation: Vascular disorders (SOC): 0 n (%)
  TEAE leading to permanent treatment discontinuation: Vomiting: 0 n (%)
  Total number of patients with any event adjudicated as pancreatitis by PSAC: 0 n (%)
[2]; ANCOVA, mITT population
  HbA1c change to Week 26, LS Mean difference (SE) of Lixisenatide vs. the labelled insulin glulisine arm: 0.21 (0.059) %
  HbA1c, Change from baseline to Week 26 (LOCF), LS Mean (SE): −0.84 (0.053) %
[2]; BL (end run-in), mITT
  HbA1c, BL (end run-in) mean ± SD: 7.8 ± 0.6%
[2]; [3]
  HbA1c, Baseline, Mean (SD): 7.79 (0.60) %
  HbA1c, Baseline, Median: 7.70%
[2]; Screening (start run-in), mITT
  HbA1c, Screening (start run-in) mean ± SD: 8.5 ± 0.8%
[2]; [4]
  HbA1c, Week 26 (LOCF), Mean (SD): 6.96 (0.73) %
  HbA1c, Week 26 (LOCF), Median: 7.00%
[2]; Week 26 (LOCF), mITT, Example 2 table
  HbA1c, Week 26 (LOCF) mean ± SD: 7.0 ± 0.7%
[2]; Week 26, mITT, Example 2 table
  HbA1c, LS mean treatment difference (lixisenatide vs the labelled arm), co-primary endpoint: 0.2^† %
  HbA1c, LS mean ± SE change from BL: −0.8 ± 0.1%
[2]; mITT population
  HbA1c, Change from baseline to Week 26 (LOCF), Mean (SD): −0.82 (0.78) %
  HbA1c, Change from baseline to Week 26 (LOCF), Median: −0.90%
